Each block holds one substance with its values, some of them ahead of it.
Target: HLA-A*02:01 (Homo sapiens, UniProt P04439, D140Y/D185E/D98H/E176V/E277Q/G131W/G231S/I119V/I121R/I166T/I218V/L300P/L318F/N151K/N90K/P208A/P217A/Q86G/Q94H/R138H/R169H/T345S)
Test: MHC binding assay (UV-ligand exchange, beta2m ELISA)
Conditions: binding to HLA-A*02:01 ranged by peptide exchange yield (UV-ligand exchange, β2m ELISA)
Summary of the method: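 UV-cleavable ligand in peptide-MHC complexes was exchanged for test peptide. Exchange yield came from an ELISA on streptavidin-captured complexes diluted 100 fold, detecting β2m with HRP anti-β2m (2 ug/ml, 1 h, 37° C.), TMB, A450.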

Peptide exchange: “++” (≥20% = ++)
Substance: 373 (SLLEDKGLAEV; listed as Homo sapiens) [compound 373]

Peptide exchange: “++” (≥20% = ++)
Substance: 374 (FLLQQHLISA; listed as Homo sapiens) [compound 374]

Peptide exchange: “++” (≥20% = ++)
Substance: 375 (SLTETIEGV; listed as Homo sapiens) [compound 375]

Peptide exchange: “++” (≥20% = ++)
Substance: 376 (AMFESSQNVLL; listed as Homo sapiens) [compound 376]

Peptide exchange: “++” (≥20% = ++)
Substance: 377 (FLLDSSASV; listed as Homo sapiens) [compound 377]

Peptide exchange: “+++” (≥50 = +++)
Substance: 378 (ALGYFVPYV; listed as Homo sapiens) [compound 378]

Peptide exchange: “++” (≥20% = ++)
Substance: 379 (IMEGTLTRV; listed as Homo sapiens) [compound 379]

Peptide exchange: “++” (≥20% = ++)
Substance: 380 (TLIEDEIATI; listed as Homo sapiens) [compound 380]

Peptide exchange: “++” (≥20% = ++)
Substance: 381 (FIDEAYVEV; listed as Homo sapiens) [compound 381]

Peptide exchange: “++” (≥20% = ++)
Substance: 382 (ALQNYIKEA; listed as Homo sapiens) [compound 382]

Peptide exchange: “+++” (≥50 = +++)
Substance: 383 (ALLELENSVTL; listed as Homo sapiens) [compound 383]

Peptide exchange: “++” (≥20% = ++)
Substance: 385 (SLLEQGLVEA; listed as Homo sapiens) [compound 385]

Peptide exchange: “+++” (≥50 = +++)
Substance: 386 (ILFRYPLTI; listed as Homo sapiens) [compound 386]

Peptide exchange: “++++” (≥75% = ++++)
Substance: 387 (ALFQATAEV; listed as Homo sapiens) [compound 387]

Peptide exchange: “+++” (≥50 = +++)
Substance: 388 (SLTIDGIRYV; listed as Homo sapiens) [compound 388]

Peptide exchange: “++” (≥20% = ++)
Substance: 389 (LLADVTHLL; listed as Homo sapiens) [compound 389]

Peptide exchange: “+++” (≥50 = +++)
Substance: 390 (ALFMKQIYL; listed as Homo sapiens) [compound 390]

Peptide exchange: “+++” (≥50 = +++)
Substance: 391 (YVYPQRLNFV; listed as Homo sapiens) [compound 391]

Peptide exchange: “++” (≥20% = ++)
Substance: 392 (ALLHPQGFEV; listed as Homo sapiens) [compound 392]

Peptide exchange: “++” (≥20% = ++)
Substance: 393 (GLLDTQTSQVLTA; listed as Homo sapiens) [compound 393]

Peptide exchange: “+++” (≥50 = +++)
Substance: 394 (LLAVIGGLVYL; listed as Homo sapiens) [compound 394]

Peptide exchange: “++++” (≥75% = ++++)
Substance: 395 (ALALGGIAVV; listed as Homo sapiens) [compound 395]

Peptide exchange: “+++” (≥50 = +++)
Substance: 396 (ALLPDLPAL; listed as Homo sapiens) [compound 396]

Peptide exchange: “+++” (≥50 = +++)
Substance: 397 (YLFGERLLEC; listed as Homo sapiens) [compound 397]

Peptide exchange: “++” (≥20% = ++)
Substance: 398 (KLLEEDGTIITL; listed as Homo sapiens) [compound 398]

Peptide exchange: “+++” (≥50 = +++)
Substance: 399 (YLFEPLYHV; listed as Homo sapiens) [compound 399]

Peptide exchange: “++” (≥20% = ++)
Substance: 400 (SLLTEQDLWTV; listed as Homo sapiens) [compound 400]

The remaining lines, values behind:

Substance: 317 (SLAALVVHV; listed as Homo sapiens) [compound 317]
Peptide exchange: “+++” (≥50 = +++)

Substance: 318 (GLINTGVLSV; listed as Homo sapiens) [compound 318]
Peptide exchange: “++” (≥20% = ++)

Substance: 320 (KMFEFVEPLL; listed as Homo sapiens) [compound 320]
Peptide exchange: “++++” (≥75% = ++++)

Substance: 321 (GLFEDVTQPGILL; listed as Homo sapiens) [compound 321]
Peptide exchange: “++++” (≥75% = ++++)

Substance: 322 (TLMTSLPAL; listed as Homo sapiens) [compound 322]
Peptide exchange: “+++” (≥50 = +++)

Substance: 324 (FLYDEIEAEV; listed as Homo sapiens) [compound 324]
Peptide exchange: “+++” (≥50 = +++)

Substance: 325 (FIMPATVADATAV; listed as Homo sapiens) [compound 325]
Peptide exchange: “+++” (≥50 = +++)

Substance: 326 (FLPEALDFV; listed as Homo sapiens) [compound 326]
Peptide exchange: “+++” (≥50 = +++)

Substance: 327 (GLAPFTEGISFV; listed as Homo sapiens) [compound 327]
Peptide exchange: “+++” (≥50 = +++)

Substance: 328 (ALNDQVFEI; listed as Homo sapiens) [compound 328]
Peptide exchange: “+++” (≥50 = +++)

Substance: 329 (FLVTLNNVEV; listed as Homo sapiens) [compound 329]
Peptide exchange: “++++” (≥75% = ++++)

Substance: 330 (QLALKVEGV; listed as Homo sapiens) [compound 330]
Peptide exchange: “+++” (≥50 = +++)

Substance: 331 (KVDTVWVNV; listed as Homo sapiens) [compound 331]
Peptide exchange: “+++” (≥50 = +++)

Substance: 332 (YLISELEAA; listed as Homo sapiens) [compound 332]
Peptide exchange: “+++” (≥50 = +++)

Substance: 333 (FLPDANSSV; listed as Homo sapiens) [compound 333]
Peptide exchange: “++” (≥20% = ++)

Substance: 334 (TLTKVLVAL; listed as Homo sapiens) [compound 334]
Peptide exchange: “+++” (≥50 = +++)

Substance: 335 (YSLSSVVTV; listed as Homo sapiens) [compound 335]
Peptide exchange: “+++” (≥50 = +++)

Substance: 336 (ILLTAIVQV; listed as Homo sapiens) [compound 336]
Peptide exchange: “+++” (≥50 = +++)

Substance: 337 (HLLSELEAAPYL; listed as Homo sapiens) [compound 337]
Peptide exchange: “++++” (≥75% = ++++)

Substance: 339 (GLWEIENNPTVKA; listed as Homo sapiens) [compound 339]
Peptide exchange: “++++” (≥75% = ++++)

Substance: 340 (ALLSMTFPL; listed as Homo sapiens) [compound 340]
Peptide exchange: “++++” (≥75% = ++++)

Substance: 341 (SQIALNEKLVNL; listed as Homo sapiens) [compound 341]
Peptide exchange: “+++” (≥50 = +++)

Substance: 342 (HIYDKVMTV; listed as Homo sapiens) [compound 342]
Peptide exchange: “+++” (≥50 = +++)

Substance: 343 (SLLEVNEESTV; listed as Homo sapiens) [compound 343]
Peptide exchange: “+++” (≥50 = +++)

Substance: 344 (YLQDQHLLLTV; listed as Homo sapiens) [compound 344]
Peptide exchange: “+++” (≥50 = +++)

Substance: 345 (VIWKALIHL; listed as Homo sapiens) [compound 345]
Peptide exchange: “+++” (≥50 = +++)

Substance: 346 (LLDSKVPSV; listed as Homo sapiens) [compound 346]
Peptide exchange: “+++” (≥50 = +++)

Substance: 347 (SLFKHDPAAWEA; listed as Homo sapiens) [compound 347]
Peptide exchange: “++++” (≥75% = ++++)

Substance: 348 (ILLDVKTRL; listed as Homo sapiens) [compound 348]
Peptide exchange: “++++” (≥75% = ++++)

Substance: 349 (SLTEYLQNV; listed as Homo sapiens) [compound 349]
Peptide exchange: “++++” (≥75% = ++++)

Substance: 350 (ALLDVTHSELTV; listed as Homo sapiens) [compound 350]
Peptide exchange: “+++” (≥50 = +++)

Substance: 351 (SLIPNLRNV; listed as Homo sapiens) [compound 351]
Peptide exchange: “+++” (≥50 = +++)

Substance: 352 (SLLELLHIYV; listed as Homo sapiens) [compound 352]
Peptide exchange: “+++” (≥50 = +++)

Substance: 353 (YLFEMDSSL; listed as Homo sapiens) [compound 353]
Peptide exchange: “++” (≥20% = ++)

Substance: 354 (LILEGVDTV; listed as Homo sapiens) [compound 354]
Peptide exchange: “++” (≥20% = ++)

Substance: 355 (SIQQSIERLLV; listed as Homo sapiens) [compound 355]
Peptide exchange: “++” (≥20% = ++)

Substance: 356 (KLLGKLPEL; listed as Homo sapiens) [compound 356]
Peptide exchange: “+++” (≥50 = +++)

Substance: 357 (SMHDLVLQV; listed as Homo sapiens) [compound 357]
Peptide exchange: “+++” (≥50 = +++)

Substance: 358 (ALDEYTSEL; listed as Homo sapiens) [compound 358]
Peptide exchange: “++++” (≥75% = ++++)

Substance: 359 (YLLPESVDL; listed as Homo sapiens) [compound 359]
Peptide exchange: “+++” (≥50 = +++)

Substance: 361 (ALYELEGTTV; listed as Homo sapiens) [compound 361]
Peptide exchange: “+++” (≥50 = +++)

Substance: 362 (TLYGLSVLL; listed as Homo sapiens) [compound 362]
Peptide exchange: “+++” (≥50 = +++)

Substance: 363 (KVLDVSDLESV; listed as Homo sapiens) [compound 363]
Peptide exchange: “++” (≥20% = ++)

Substance: 364 (LLQNEQFEL; listed as Homo sapiens) [compound 364]
Peptide exchange: “+++” (≥50 = +++)

Substance: 365 (YVIDQGETDVYV; listed as Homo sapiens) [compound 365]
Peptide exchange: “+++” (≥50 = +++)

Substance: 366 (RLLDMGETDLML; listed as Homo sapiens) [compound 366]
Peptide exchange: “+++” (≥50 = +++)

Substance: 367 (SLQNHNHQL; listed as Homo sapiens) [compound 367]
Peptide exchange: “+++” (≥50 = +++)

Substance: 369 (GLFPEHLIDV; listed as Homo sapiens) [compound 369]
Peptide exchange: “+++” (≥50 = +++)

Substance: 370 (SLLQDLVSV; listed as Homo sapiens) [compound 370]
Peptide exchange: “+++” (≥50 = +++)

Substance: 371 (FLQAHLHTA; listed as Homo sapiens) [compound 371]
Peptide exchange: “++++” (≥75% = ++++)

Substance: 372 (TMLLNIPLV; listed as Homo sapiens) [compound 372]
Peptide exchange: “++” (≥20% = ++)

From patent US10738094B2, “Peptides and combination of peptides for use in immunotherapy against ovarian cancer and other cancers” (immatics biotechnologies GmbH, priority 2015, dated 2020)
